In the nanobody polyreactivity screen of Harvey et al. (2022):

Test: yeast display, Sf9 membrane polyspecificity reagent, FACS + sequencing; frameworks hold sequencing errors
In short: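 Polyreactivity labels are assigned by the sorting gate from which each nanobody was recovered. The gates were low and high (top ~1%), set on anti-HA fluorescence for expression and streptavidin fluorescence for reagent binding. Before sorting, galactose-induced (36–48 hours) yeast display cells were stained for 1 hour at 4 °C with 10% biotinylated, detergent-solubilized Sf9 membrane reagent.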

Sequence: QVQLVESVGGLVQAGGSLRLSCAASGFIFKSYSMGWYRQAPGKERELVAAISGRGGSTYYADSVKGRFTISRDNAKNTVYLQMNSLKPEDTAVYYCNVVPSTYYQYDYWGQGTQVTVSS
- polyreactivity (PSR sort gate): high polyreactivity

Sequence: QVQLVESVGGLVQAGGSLRLSCAASGFIFPYYVMGWYRQAPGKERELVAAITSVGITYYADSVKGRFTISRDNAKNTVYLQMNSLKPEDTAVYYCAADYKYFYDWGSFVEDEYWGQGTQVTVSS
- polyreactivity (PSR sort gate): high polyreactivity

Sequence: QVQLVESVGGLVQAGGSLRLSCAASGFIFRPYAMGWSRQAPGKERELVAAISWSGDRTYYADSVKGRFTISRDNAKNTVYLQMNSLKPEDTAVYYCAAEGVTRDYDYWGQGTQVTVSS
- polyreactivity (PSR sort gate): low polyreactivity

Sequence: QVQLVESVGGLVQAGGSLRLSCAASGFIFSYYAMGRYRQAPGKERELVATINFSGGRTYYADSVKGRFTISRDNAKNTVYLQMNSLKPEDTAVYYCAAVARSRAAPGVGYWGQGTQVTVSS
- polyreactivity (PSR sort gate): high polyreactivity

Sequence: QVQLVESVGGLVQAGGSLRLSCAASGFIFTHYAMGWYRQAPGKERELVAAISSGGSTYYADSVKGRFTISRDNAKNTVYLQMNSLKPEDTAVYYCAAVWPWRYYATGENYWGQGTHVTVSS
- polyreactivity (PSR sort gate): high polyreactivity

Sequence: QVQLVESVGGLVQAGGSLRLSCAASGFISYYYAMGWYRQAPGKEREFVAAITSSGGSTRYADSVKGRFTISRDNAKNPVYLQMNSLKPEDTAVYYCAARKARPPFPHPFDYYWGQGTQVTVSS
- polyreactivity (PSR sort gate): low polyreactivity

Sequence: QVQLVESVGGLVQAGGSLRLSCAASGFIYGWNAMGWYRQAPVKERELVASIRSSGGTTYADSVKGRFTISRDNAKNTVYLQMNSLKAEDNAVYYCARRVLGLLELDYWGQGTQVTVSS
- polyreactivity (PSR sort gate): low polyreactivity

Sequence: QVQLVESVGGLVQAGGSLRLSCAASGFTFDYYSMGWYRQATGKERELVAAITTAGSTNYADSVKGRFTISRDNAKNTVSLQINSLKPEDTAVYYCAAYWWPWDISWDDYWGQGTQVNVSS
- polyreactivity (PSR sort gate): high polyreactivity

Sequence: QVQLVESVGGLVQAGGSLRLSCAASGFTFGRYAMGWYRQAPGKESELVATITRTGSTNYADSVKGRFTISRDNAKNTVYLQMNSLKPEDTAVYYCAKDWAYRRHWVGFYYWGLGTQVTVSS
- polyreactivity (PSR sort gate): low polyreactivity

Sequence: QVQLVESVGGLVQAGGSLRLSCAASGFTFVGNTMGWYRQAPGKERELVAAIRGRDGRTYYADSVKGRFTISRDNAKNTVYLQMNSLKPEDTAVYYCNVDVKYSVRSEFDFWGQGTQVTVSS
- polyreactivity (PSR sort gate): low polyreactivity

Sequence: QVQLVESVGGLVQAGGSLRLSCAASGFTFYKYAMGWYRQAPGKEREFVAAIRTRSDSTYYADSVKGRFTISRDNAKNTVYLQMNSLKPEDTAVYYCAAQGYVEVGYSRYYYWGQGTQVTVSS
- polyreactivity (PSR sort gate): high polyreactivity

Sequence: QVQLVESVGGLVQAGGSLRLSCAASGIIFVGYAMGWYRPAPGKERELVSAIDLSGDSTYYADSVKGRFTISRDNAKNTVYLQMNSLKPEDTAVYYCAAGYWHRVNGDYDYWGQGTQVTVSS
- polyreactivity (PSR sort gate): high polyreactivity

Sequence: QVQLVESVGGLVQAGGSLRLSCAASGITFGRNTMGWYRQAPGKERELVAAISWNGDSTYYADSVKGRFTISRDNAKNTVYLQMNSLKPEDTAVYYCNADDVFLYQTDGLGDYWGQGTQVTVSS
- polyreactivity (PSR sort gate): low polyreactivity

Sequence: QVQLVESVGGLVQAGGSLRLSCAASGITFNEYAMGWYRQATGKARELVAAISRRGGSTYYADSVKGRFTISRDNAKNTVYLQMYSLKPEDTAVYYCAADPGTPRYQFLWYGYWGQGTQVTVSS
- polyreactivity (PSR sort gate): low polyreactivity

Sequence: QVQLVESVGGLVQAGGSLRLSCAASGITFRRYAMGWYRQAPGKERELVATIRNSGGGTYYADSVKGRFTISRDNAKNTVYLQMNSLKPEDTAVYYCAAELYFTYYYWGQGTQVTVSS
- polyreactivity (PSR sort gate): high polyreactivity

Sequence: QVQLVESVGGLVQAGGSLRLSCAASGLTFRKYAMGWYRQAPGKERELVAGISSGGSTYYADSVKGRFTISRDNAKNTVYLQMNSLKPEDTAVYYCAAKALRTMYYWGQGTQVTVSS
- polyreactivity (PSR sort gate): high polyreactivity

Sequence: QVQLVESVGGLVQAGGSLRLSCAASGRIFGSNAMGWYRPAPGKERELVAAISLSGTSTYYADSVKGRFTISRDNAKNTVYLQMNSLKPEDTAVYYCAAGLPGGTYFWGQGTQVTVSS
- polyreactivity (PSR sort gate): high polyreactivity

Sequence: QVQLVESVGGLVQAGGSLRLSCAASGRIFGYNDMGWYRQEPGKERELVAVISTSGTITYYADSVKGRFTISRDNAKNTVYLQMNSLKPEDTAVYNCAAGSYSRYLYSLYFDFDYWGQGTQVTVSS
- polyreactivity (PSR sort gate): low polyreactivity

Sequence: QVQLVESVGGLVQAGGSLRLSCAASGRIFPYYAMGWYIQAPGKERELVATITWRGGITYYADSVKGRFTISRDNAKNTVYLQMNSLKPEDTSVYYCAVRKVYRSSFDYWGQGTQVTVSS
- polyreactivity (PSR sort gate): high polyreactivity

Sequence: QVQLVESVGGLVQAGGSLRLSCAASGRIFRWNAMGWYRQAPGKEREFVAAISWSGGSTYYADSVKGRFTISRDNAKNTFYLQMNSLKPEDTAVYYCNKVGYYCVGTSQEFDYWGQGTQVTVSS
- polyreactivity (PSR sort gate): high polyreactivity

Sequence: QVQLVESVGGLVQAGGSLRLSCAASGRIFRYYAMGWSRQAPGKERELVAGISRGTSTYYADSVKGRFTISRDNAKNTVYLQMNSLKPEDTAVYYCAKGSIQYFRPYTFYTWGQGTQVTVSS
- polyreactivity (PSR sort gate): high polyreactivity

Sequence: QVQLVESVGGLVQAGGSLRLSCAASGRTFAYTAMGWYRQARGKDREWLAAITWSGDSTYYADSVKGRFTISRDNAKNTVSLQKNSLKPEDTAVYYCAADYFGGPSYEFVYWGQGTQVTGSS
- polyreactivity (PSR sort gate): low polyreactivity

Sequence: QVQLVESVGGLVQAGGSLRLSCAASGRTFFYNAMGWYRQAPAKERELVAAIDWSGDSTYYADSVKGRFTISRDNAKNTVYLQMNSLKPEDTAVYYCAARRKNRRDYDYYYWGQGTQVTVSS
- polyreactivity (PSR sort gate): high polyreactivity

Sequence: QVQLVESVGGLVQAGGSLRLSCAASGRTFRWNAMGWYRQAPGKERELVAAISYSGGSTYYADSVKGRFTISRDNAKNTVYLQMNSLKPEDTAVYYCAKAYSWYPIFRGLDSWGQGTQVTVSS
- polyreactivity (PSR sort gate): high polyreactivity

Sequence: QVQLVESVGGLVQAGGSLRLSCAASGRTFRYNAMGWYRQAPGKERELVASITSGGSTNYADSVKGRFTISRDNAKNTVYLQMNSLKPEDTAVYYCAAEAYFWQYERDYWGQGTQVTLSS
- polyreactivity (PSR sort gate): low polyreactivity

Sequence: QVQLVESVGGLVQAGGSLRLSCAASGRTFSTKAMGWYRQAPGKERELVAVIPSSGVRTYYADSVKGRFTISRDNAKNTVYLQKNSLKPEDTAVYYCAKPYGYRLDYWGQGTQVTVSS
- polyreactivity (PSR sort gate): high polyreactivity

Sequence: QVQLVESVGGLVQAGGSLRLSCAASGRTFWWNAMGWYRQAPGKEREFVAAIRSTGGRTYYADSVKGRFTISRDNAKNTVYLQMNSLKPEDTAVYYCAAYTLDPYGFLYEYWGQGTQVTVSS
- polyreactivity (PSR sort gate): high polyreactivity

Sequence: QVQLVESVGGLVQAGGSLRLSCAASGRTIHFNTMGWYRQAPGKERELVAAIRWGGNTYYADSVKGRFTISRDNAKNTVYLQMNSLKPEDTAVYYCAADRWYYFLMYYWGQGTQVTVSS
- polyreactivity (PSR sort gate): low polyreactivity

Sequence: QVQLVESVGGLVQAGGSLRLSCAASGRTLPWYAMGWYRQAPGKERELVAVIRWIGGRTYYADSVKGRFTISRDNAKNTVYLQMNSLKPEDTAVYYCAARPHYYYGWYYYWGQGTQVTVSS
- polyreactivity (PSR sort gate): high polyreactivity

Sequence: QVQLVESVGGLVQAGGSLRLSCAASGSIFKSYAMGWYRQAPGKERELVAAITYRGGSTYYADSVKGRFTISRDNAKNTVYLQMNSLKPEDTAVYYCAKDQHRYYQVWGDYWGQGTQVTVSS
- polyreactivity (PSR sort gate): high polyreactivity

Sequence: QVQLVESVGGLVQAGGSLRLSCAASGSIFRNYAMGWYRQAPGKERELVAAITYRGGTTYYADSVKGRFTISRDNAKNTVYLQMNSLKPEDTAVYYCNTASVSRLYGEYDYWGQGTQVTVSS
- polyreactivity (PSR sort gate): high polyreactivity

Sequence: QVQLVESVGGLVQAGGSLRLSCAASGSIFSYYAMGWYRQAPGKERELVAAITSSGDSTYYADSVKGRFTISRDNAKNTVYLQINSLKPEDTAVYYCAAGILDLKLYFSSYDYWGQGTQVTVSS
- polyreactivity (PSR sort gate): low polyreactivity
